Assay results reported in patent EP4692367A1.

Key:
[1] = biological target: LgBiT-p62 (Homo sapiens (Human)) (UniProt Q13501); test: NanoBiT split-luciferase complementation in HeLa cells co-transfected with pLgBiT-p62 and pSmBiT-DDX5; 10 uM FBnG for 24 h; luminescence 10 min after start of measurement
[2] = biological target: LgBiT-p62 (Homo sapiens (Human)) (UniProt Q13501); test: NanoBiT split-luciferase complementation in HeLa cells co-transfected with pLgBiT-p62 and pSmBiT-DDX5; 10 uM AUTAC2-2G for 12 h; luminescence 10 min after start of measurement
[3] = biological target: LgBiT-p62 (Homo sapiens (Human)) (UniProt Q13501); test: NanoBiT split-luciferase complementation in HeLa cells co-transfected with pLgBiT-p62 and pSmBiT-DDX5; 10 uM AUTAC4-2G for 12 h; luminescence 10 min after start of measurement
[4] = biological target: LgBiT-p62 (Homo sapiens (Human)) (UniProt Q13501); test: NanoBiT split-luciferase complementation in HeLa cells co-transfected with pLgBiT-p62 and pSmBiT-DDX5; 10 uM 8-nitro-cGMP for 24 h; luminescence 10 min after start of measurement
[5] = biological target: LgBiT-p62 (Homo sapiens (Human)) (UniProt Q13501); test: NanoBiT split-luciferase complementation in HeLa cells co-transfected with pLgBiT-p62 and pSmBiT-DDX5; each of compounds 5 to 33 at 10 uM for 24 h; luminescence 10 min after start of measurement

Measured: emission intensity relative to cells treated with DMSO (times (fold over DMSO-treated cells))

SmBiT-DDX5, sequence (P17844 whole entry): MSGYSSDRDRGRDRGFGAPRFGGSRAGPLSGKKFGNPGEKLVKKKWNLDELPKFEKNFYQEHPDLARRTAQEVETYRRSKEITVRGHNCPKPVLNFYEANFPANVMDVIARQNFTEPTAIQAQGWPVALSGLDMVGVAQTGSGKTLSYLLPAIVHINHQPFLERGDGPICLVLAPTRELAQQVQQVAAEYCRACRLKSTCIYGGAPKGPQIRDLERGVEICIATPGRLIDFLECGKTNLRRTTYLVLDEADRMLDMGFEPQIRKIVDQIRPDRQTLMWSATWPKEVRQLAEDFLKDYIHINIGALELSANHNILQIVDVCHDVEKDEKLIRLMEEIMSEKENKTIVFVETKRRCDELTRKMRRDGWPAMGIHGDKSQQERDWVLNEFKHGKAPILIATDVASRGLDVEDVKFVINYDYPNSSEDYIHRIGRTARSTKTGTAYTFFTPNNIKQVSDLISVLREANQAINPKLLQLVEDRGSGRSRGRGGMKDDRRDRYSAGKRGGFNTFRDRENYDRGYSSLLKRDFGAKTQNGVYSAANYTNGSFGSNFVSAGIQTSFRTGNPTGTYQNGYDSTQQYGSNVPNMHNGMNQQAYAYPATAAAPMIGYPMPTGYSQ

SmBiT-DDX5 (from UniProt P17844 1-614) (enzyme)
> 1000: all assays above
